From the supplement of paper PMC7125110
± gives the standard error. For some of these results: This sample holds only a part of the variants without activity.

B1: glmS ribozyme (parent)
chain: AUAAAAGCGCCAGAACUACAGAAAUGUAGUUGACGAGGAGGAGGUUUAUCGAAUUUUCGGCGGAUGCCUCCAAA

Legend:
Details in all cases: with glucosamine-6-phosphate
glucosamine-6-phosphate [1] = variants of: B1; assay: kcat; higher = faster cleavage; RNA array
How it was run: (§1)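 On sequenced MiSeq chips, barcoded ribozyme variants were made in situ by E. coli RNA polymerase and followed at 37 °C through a hybridised Cy3 probe. Glucosamine-6-phosphate was flowed in at 40 μM to 10 mM in HEPES/KCl/Mg(OAc)2 buffer. Exponential fits to normalised per-tile medians gave kobs, and weighted Michaelis–Menten fits gave kcat and KM.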

glucosamine-6-phosphate [2] = variants of: B1; assay: KM; higher = weaker cofactor use; RNA array
How it was run: as §1

glucosamine-6-phosphate [3] = variants of: B1; assay: self-cleavage kobs at 40 uM GlcN6P; higher = faster cleavage; RNA array
How it was run: as §1

glucosamine-6-phosphate [4] = variants of: B1; assay: self-cleavage kobs at 160 uM GlcN6P; higher = faster cleavage; RNA array
How it was run: as §1

glucosamine-6-phosphate [5] = variants of: B1; assay: self-cleavage kobs at 640 uM GlcN6P; higher = faster cleavage; RNA array
How it was run: as §1

glucosamine-6-phosphate [6] = variants of: B1; assay: self-cleavage kobs at 2500 uM GlcN6P; higher = faster cleavage; RNA array
How it was run: as §1

glucosamine-6-phosphate [7] = variants of: B1; assay: self-cleavage kobs at 10000 uM GlcN6P; higher = faster cleavage; RNA array
How it was run: as §1

Row | Variant | kcat (glucosamine-6-phosphate [1]) [s⁻¹] | KM (glucosamine-6-phosphate [2]) [µM] | self-cleavage kobs at 40 uM GlcN6P (glucosamine-6-phosphate [3]) [s⁻¹] | self-cleavage kobs at 160 uM GlcN6P (glucosamine-6-phosphate [4]) [s⁻¹] | self-cleavage kobs at 640 uM GlcN6P (glucosamine-6-phosphate [5]) [s⁻¹] | self-cleavage kobs at 2500 uM GlcN6P (glucosamine-6-phosphate [6]) [s⁻¹] | self-cleavage kobs at 10000 uM GlcN6P (glucosamine-6-phosphate [7]) [s⁻¹]
1 | A14U A53U | 0.00789 ± 0.00051 | 2540 ± 240 | 0.000127 ± 1.2e-05 | 0.000453 ± 9.2e-05 | 0.00157 ± 0.00019 | 0.00355 ± 0.00044 | 0.00654 ± 0.00056
2 | A39U A42U | 0.00653 ± 0.0017 | 1400 ± 530 | 0.000312 ± 7.2e-05 | 0.000582 ± 8.8e-05 | 0.00223 ± 0.00042 | 0.00602 ± 0.0014 | 0.00529 ± 0.00096
3 | G41U C58A | 1.21e-05 ± 4e-06 |  |  |  |  |  | 
4 | C11G | < 1e-05 | 665 ± 260 | < 1e-05 |  |  |  | < 1e-05
5 | C11U G37C | 1.18e-05 ± 3.2e-06 |  |  |  |  |  | 
6 | A15U C16G | 0.00121 ± 0.00041 | 2570 ± 1300 | 2.88e-05 ± 1.4e-05 | 8.8e-05 ± 1.9e-05 | 0.000169 ± 5.1e-05 | 0.000786 ± 0.0002 | 0.000952 ± 0.00022
7 | A39U C71U | 0.0168 ± 0.0026 | 1030 ± 230 | 0.000702 ± 7.4e-05 | 0.00196 ± 0.00029 | 0.00657 ± 0.00085 | 0.0105 ± 0.0014 | 0.0183 ± 0.0026
8 | C58U C70G | 1.93e-05 ± 3.5e-06 |  |  |  | 2.38e-05 ± 9.2e-06 | 2.22e-05 ± 1e-05 | 
9 | C11U U55G C70G | 9.32e-05 ± 8.6e-06 |  |  |  | 7.75e-05 ± 2.5e-05 |  | 8.94e-05 ± 1.7e-05
10 | A14U C50U C58U G60U | < 1e-05 |  | < 1e-05 |  | < 1e-05 |  | 
11 | A39U G40U | 0.00237 ± 0.00036 | 997 ± 220 | 9.94e-05 ± 1.5e-05 | 0.000285 ± 4.1e-05 | 0.00112 ± 0.00016 | 0.00163 ± 0.00025 | 0.00209 ± 0.00044
12 | C10U U69G | 2.93e-05 ± 5.7e-06 |  |  | 2.85e-05 ± 8.2e-06 | 2.55e-05 ± 1.1e-05 | 3.24e-05 ± 9.9e-06 | 
13 | A14G A23C A64U | 0.000287 ± 3.5e-05 | 1610 ± 460 |  |  | 8.79e-05 ± 2.3e-05 | 0.000151 ± 4.3e-05 | 0.00026 ± 5.2e-05
14 | U45G U65G | 0.00365 ± 0.0011 | 2200 ± 1000 | 7.22e-05 ± 2.1e-05 |  | 0.000639 ± 0.00024 | 0.00296 ± 0.00091 | 0.00282 ± 0.00077
15 | A6G G37C | < 1e-05 |  |  | < 1e-05 |  |  | 
16 | A36U U69A | 4.58e-05 ± 1.6e-05 |  | 5.11e-05 ± 1.6e-05 |  |  | 7.35e-05 ± 2.7e-05 | 
17 | A48U U57G | < 1e-05 |  | < 1e-05 | < 1e-05 |  |  | < 1e-05

Row | Variant | kcat (glucosamine-6-phosphate [1]) [s⁻¹] | KM (glucosamine-6-phosphate [2]) [µM] | self-cleavage kobs at 40 uM GlcN6P (glucosamine-6-phosphate [3]) [s⁻¹] | self-cleavage kobs at 160 uM GlcN6P (glucosamine-6-phosphate [4]) [s⁻¹] | self-cleavage kobs at 640 uM GlcN6P (glucosamine-6-phosphate [5]) [s⁻¹] | self-cleavage kobs at 2500 uM GlcN6P (glucosamine-6-phosphate [6]) [s⁻¹] | self-cleavage kobs at 10000 uM GlcN6P (glucosamine-6-phosphate [7]) [s⁻¹]
18 | C61U G62A | < 1e-05 |  |  | < 1e-05 | < 1e-05 |  | < 1e-05
19 | U45A U56G | 0.0614 ± 0.024 | 3390 ± 1600 | 0.000857 ± 0.00011 | 0.00188 ± 0.00049 | 0.0108 ± 0.0024 | 0.0272 ± 0.0087 | 0.0457 ± 0.011
20 | G29U A53G C67G | 0.000147 ± 2.6e-05 |  | 5.1e-05 ± 1.8e-05 | 6.91e-05 ± 1.9e-05 | 0.000108 ± 1.9e-05 | 0.000139 ± 3.6e-05 | 0.000205 ± 4.9e-05
21 | U57A G60U | < 1e-05 |  | < 1e-05 | < 1e-05 | < 1e-05 |  | < 1e-05
22 | U30A U31C | 0.00588 ± 0.00051 | 4300 ± 500 | 5.91e-05 ± 1.1e-05 | 0.000203 ± 4.9e-05 | 0.000754 ± 0.00011 | 0.00197 ± 0.00041 | 0.00423 ± 0.0006
23 | G38C C50U C61G | < 1e-05 |  |  |  | < 1e-05 |  | 
24 | A6C C70U | 0.000107 ± 2.6e-06 | 1350 ± 110 |  |  | 3.3e-05 ± 6.9e-06 | 7.26e-05 ± 9.6e-06 | 9.39e-05 ± 7.1e-06
25 | C61A U69G | < 1e-05 |  | < 1e-05 |  |  |  | 
26 | G41A U47G | 0.00145 ± 0.00012 | 3540 ± 470 |  | 6.46e-05 ± 2.1e-05 | 0.00021 ± 4e-05 | 0.000656 ± 0.00011 | 0.00104 ± 0.00017
27 | G40C U55C | 0.000721 ± 0.00014 | 4590 ± 1400 |  | 2.05e-05 ± 5.9e-06 | 0.00012 ± 3.6e-05 | 0.000287 ± 8.2e-05 | 0.000483 ± 7.8e-05
28 | A39U U56C | 0.00176 ± 0.00058 | 2130 ± 950 | 3.9e-05 ± 8.2e-06 | 0.000149 ± 2.8e-05 | 0.000351 ± 5.4e-05 | 0.000804 ± 0.00019 | 0.00192 ± 0.0004
29 | G44C A53C | 6.93e-05 ± 2.5e-06 | 2650 ± 300 |  |  |  | 3.4e-05 ± 1e-05 | 5.46e-05 ± 9.3e-06
30 | A12G C68A | 2.58e-05 ± 7.3e-06 |  |  |  |  | 3.36e-05 ± 9e-06 | 1.95e-05 ± 7.6e-06
31 | C10U A15G | 2.54e-05 ± 2e-06 | 4700 ± 910 | < 1e-05 |  |  |  | 
32 | U45G C58G | 6.11e-05 ± 9.3e-06 | 4730 ± 1900 |  |  |  |  | 4.17e-05 ± 1.1e-05
33 | C11U G32A | 0.000453 ± 3.3e-05 | 1520 ± 290 |  | 5.04e-05 ± 2.1e-05 | 0.00014 ± 3.1e-05 | 0.000239 ± 5.9e-05 | 0.000404 ± 4.4e-05
34 | C11U C34U G63U C70G | 2.22e-05 ± 4.3e-06 |  |  |  |  |  | 
